Laboratory results from paper PMC8263624, “Asymmetric reconstruction of mammalian reovirus reveals interactions among RNA, transcriptional factor µ2 and capsid proteins” (Nature Communications, 2021).

Target: the molecule itself
Experiment: cryo-EM structure; asymmetric (C1) vertex sub-particle reconstructions of native MRV ISVP at 3.3 Å, asymmetric full ISVP at 4.3 Å; isolated virus particles in PBS pH 7.4; proteins assembled in the particle, in situ

Protein | stoichiometry N
membrane penetration protein µ1 (natural protein, N-myristoyl group at the amino terminus, N-terminal (N-myristoyl) fragment of penetration protein μ1 of mammalian reovirus serotype Dearing 3, up to the autolytic cleavage site between N42 and P43; penetration protein μ1 of mammalian reovirus serotype Dearing 3 from the autolytic cleavage site between N42 and P43 onwards; 600 copies (200 trimers) in each particle; also called μ1; penetration protein μ1; copies: 3 + 3) chain 1: MGNASSIVQTINVTGDGNVFKPSAETSSTAVPSLSLSPGMLN chain 2: PGGVPWIAVGDETSVTSPGALRRMTSKDIPETAIINTDNSSGAVPSESALVPYIDEPLVVVTEHAITNFTKAEMALEFNREFLDKMRVLSVSPKYSDLLTYVDCYVGVSARQALNNFQKQVPVITPTRQTMYVDSIQAALKALEKWEIDLRVAQTLLPTNVPIGEVSCPMQSVVKLLDDQLPDDSLIRRYPKEAAVALAKRNGGIQWMDVSEGTVMNEAVNAVAASALAPSASAPPLEEKSKLTEQAMDLVTAAEPEIIASLAPVPAPVFAIPPKPADYNVRTLRIDEATWLRMIPKSMNTPFQIQVTDNTGTNWHLNLRGGTRVVNLDQIAPMRFVLDLGGKSYKETSWDPNGKKVGFIVFQSKIPFELWTAASQIGQATVVNYVQLYAEDSSFTAQSIIATTSLAYNYEPEQLNKTDPEMNYYLLATFIDSAAITPTNMTQPDVWDALLTMSPLSAGEVTVKGAVVSEVVPADLIGSYTPESLNASLPNDAARCMIDRASKIAEAIKIDDDAGPDEYSPNSVPIQGQLAISQLETGYGVRIFNPKGILSKIASRAMQAFIGDPSTIITQAAPVLSDKNNWIALAQGVKTSLRTKSLSAGVKTAVSKLSSSESIQNWTQGFLDKVSAHFPAPKPDCPTSGDSGESSNRRVKRDSYAGVVKRGYTR | 3
receptor binding protein σ1 (natural protein, 12 trimers in each particle; Seen only in the sub-particle reconstruction; also called σ1 trimer; σ1 spike) MDPRLREEVVRLIIALTSDNGASLSKGLESRVSALEKTSQIHSDTILRITQGLDDANKRIIALEQSRDDLVASVSDAQLAISRLESSIGALQTVVNGLDSSVTQLGARVGQLETGLAELRVDHDNLVARVDTAERNIGSLTTELSTLTLRVTSIQADFESRISTLERTAVTSAGAPLSIRNNRMTMGLNDGLTLSGNNLAIRLPGNTGLNIQNGGLQFRFNTDQFQIVNNNLTLKTTVFDSINSRIGATEQSYVASAVTPLRLNSSTKVLDMLIDSSTLEINSSGQLTVRSTSPNLRYPIADVSGGIGMSPNYRFRQSMWIGIVSYSGSGLNWRVQVNSDIFIVDDYIHICLPAFDGFSIADGGDLSLNFVTGLLPPLLTGDTEPAFHNDVVTYGAQTVAIGLSSGGAPQYMSKNLWVEQWQDGVLRLRVEGGGSITHSNSKWPAMTVSYPRSFT | 3
capsid shell protein (CSP) λ1 (natural protein, capsid shell protein λ1 of mammalian reovirus serotype Dearing 3, native in the virus particle; 120 copies in each particle as λ1A/λ1B dimers; five pairs (1-5) around each vertex; also called λ1A; λ1B) MKRIPRKTKGKSSGKGNDSTERADDGSSQLRDKQNNKAGPATTEPGTSNREQYKARPGIASVQRATESAEMPMKNNDEGTPDKKGNTKGDLVNEHSEAKDEADEATKKQAKDTDKSKAQVTYSDTGINNANELSRSGNVDNEGGSNQKPMSTRIAEATSAIVSKHPARVGLPPTASSGHGYQCHVCSAVLFSPLDLDAHVASHGLHGNMTLTSSDIQRHITEFISSWQNHPIVQVSADVENKKTAQLLHADTPRLVTWDAGLCTSFKIVPIVPAQVPQDVLAYTFFTSSYAIQSPFPEAAVSRIVVHTRWASNVDFDRDSSVIMAPPTENNIHLFKQLLNTETLSVRGANPLMFRANVLHMLLEFVLDNLYLNRHTGFSQDHTPFTEGANLRSLPGPDAEKWYSIMYPTRMGTPNVSKICNFVASCVRNRVGRFDRAQMMNGAMSEWVDVFETSDALTVSIRGRWMARLARMNINPTEIEWALTECAQGYVTVTSPYAPIVNRLMPYRISNAERQISQIIRIMNIGNNATVIQPVLQDISVLLQRISPLQIDPTIISNTMSTVSESTTQTLSPASSILGKLRPSNSDFSSFRVALAGWLYNGVVTTVIDDSSYPKDGGSVTSLENLWDFFILALALPLTTDPCAPVKAFMTLANMMVGFETIPMDNQIYTQSRRASAFSTPHTWPRCFMNIQLISPIDAPILRQWAEIIHRYWPNPSQIRYGAPNVFGSANLFTPPEVLLLPIDHQPANVTTPTLDFTNELTNWRARVCELMKNLVDNQRYQPGWTQSLVSSMRGTLDKLKLIKSMTPMYLQQLAPVELAVIAPMLPFPPFQVPYVRLDRDRVPTMVGVTRQSRDTITQPALSLSTTNTTVGVPLALDARAITVALLSGKYPPDLVTNVWYADAIYPMYADTEVFSNLQRDMITCEAVQTLVTLVAQISETQYPVDRYLDWIPSLRASAATAATFAEWVNTSMKTAFDLSDMLLEPLLSGDPRMTQLAIQYQQYNGRTFNIIPEMPGSVIADCVQLTAEVFNHEYNLFGIARGDIIIGRVQSTHLWSPLAPPPDLVFDRDTPGVHIFGRDCRISFGMNGAAPMIRDETGLMVPFEGNWIFPLALWQMNTRYFNQQFDAWIKTGELRIRIEMGAYPYMLHYYDPRQYANAWNLTSAWLEEITPTSIPSVPFMVPISSDHDISSAPAVQYIISTEYNDRSLFCTNSSSPQTIAGPDKHIPVERYNILTNPDAPPTQIQLPEVVDLYNVVTRYAYETPPITAVVMGVP | 2
mRNA capping protein λ2 (enzyme, mRNA capping protein λ2 of mammalian reovirus serotype Dearing 3, native in the virus particle; 60 copies forming 12 pentameric turrets; also called capping enzyme λ2; turret) MANVWGVRLADSLSSPTIETRTRQYTLHDLCSDLDANPGREPWKPLRNQRTNNIVAVQLFRPLQGLVLDTQLYGFPGAFDDWERFMREKLRVLKYEVLRIYPISNYSNEHVNVFVANALVGAFLSNQAFYDLLPLLIINDTMIGDLLGTGASLSQFFQSHGDVLEVAAGRKYLQMENYSNDDDDPPLFAKDLSDYAKAFYSDTYEVLDRFFWTHDSSAGVLVHYDKPTNGHHYLLGTLTQMVSAPPYIINATDAMLLESCLEQFSANVRARPAQPVTRLDQCYHLRWGAQYVGEDSLTYRLGVLSLLATNGYQLARPIPRQLTNRWLSSFVSQIMSDGVNETPLWPQERYVQIAYDSPSVVDGATQYGYVRKNQLRLGMRISALQSLSDTPSPVQWLPQYTIDQAAMDEGDLMVSRLTQLPLRPDYGNIWVGDALSYYVDYNRSHRVVLSSELPQLPDTYFDGDEQYGRSLFSLARKIGDRSLVKDTAVLKHAYQAIDPNTGKEYLRSRQSVAYFGASAGHSGADQPLVIEPWIQGKISGVPPPSSVRQFGYDVARGAIVDLARPFPSGDYQFVYSDVDQVVDGHDDLSISSGLVESLLSSCMHATAPGGSFVVKINFPTRPVWHYIEQKILPNITSYMLIKPFVTNNVELFFVAFGVHQHSSLTWTSGVYFFLVDHFYRYETLSTISRQLPSFGYVDDGSSVTGIETISIENPGFSNMTQAARIGISGLCANVGNARKSIAIYESHGARVLTITSRRSPASARRKSRLRYLPLIDPRSLEVQARTILPADPVLFENVSGASPHVCLTMMYNFEVSSAVYDGDVVLDLGTGPEAKILELIPATSPVTCVDIRPTAQPSGCWNVRTTFLELDYLSDGWITGVRGDIVTCMLSLGAAAAGKSMTFDAAFQQLIKVLSKSTANVVLVQVNCPTDVVRSIKGYLEIDSTNKRYRFPKFGRDEPYSDMDALEKICRTAWPNCSITWVPLSYDLRWTRLALLESTTLSSASIRIAELMYKYMPIMRIDIHGLPMEKRGNFIVGQNCSLVIPGFNAQDVFNCYFNSALAFSTEDVNAAMIPQVSAQFDATKGEWTLDMVFSDAGIYTMQALVGSNANPVSLGSFVVDSPDVDITDAWPAQLDFTIAGTDVDITVNPYYRLMTFVRIDGQWQIANPDKFQFFSSASGTLVMNVKLDIADKYLLYYIRDVQSRDVGFYIQHPLQLLNTITLPTNEDLFLSAPDMREWAVKESGNTICILNSQGFVLPQDWDVLTDTISWSPSIPTYIVPPGDYTLTPL | 5
